T1: human IGSF11 (VSIG3) ECD, His-tagged (human, UniProt Q5DX21 23-241)
T1 construct: in part bought (SinoBiological 13094-H08H); also called HIS-IGSF11; IGSF11-HIS; not shown: His tag
T1 sequence: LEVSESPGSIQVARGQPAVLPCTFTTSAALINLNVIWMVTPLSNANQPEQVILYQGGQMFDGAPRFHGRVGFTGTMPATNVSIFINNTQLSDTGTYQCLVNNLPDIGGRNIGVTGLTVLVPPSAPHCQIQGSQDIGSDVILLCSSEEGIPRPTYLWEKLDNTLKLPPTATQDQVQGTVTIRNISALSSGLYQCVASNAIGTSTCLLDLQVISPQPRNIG

T2: extracellular domain (ECD) of human IGSF11 (VSIG3), recombinant (human, UniProt Q5DX21 23-241)
T2 construct: biotinylated where captured on streptavidin; tags of the reagent not always stated; also called IGSF11 (ECD domain); ECD-IGSF11
T2 sequence: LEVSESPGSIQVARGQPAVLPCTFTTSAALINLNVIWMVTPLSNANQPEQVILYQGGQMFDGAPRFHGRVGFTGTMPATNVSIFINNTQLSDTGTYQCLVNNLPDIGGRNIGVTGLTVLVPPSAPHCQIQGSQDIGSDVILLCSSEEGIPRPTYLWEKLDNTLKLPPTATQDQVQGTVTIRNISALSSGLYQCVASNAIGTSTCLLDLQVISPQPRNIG

T3: ECD of murine IGSF11, recombinant biotinylated (mouse, UniProt P0C673 23-240)
T3 construct: whole entry named; also called Mouse IGSF11
T3 sequence: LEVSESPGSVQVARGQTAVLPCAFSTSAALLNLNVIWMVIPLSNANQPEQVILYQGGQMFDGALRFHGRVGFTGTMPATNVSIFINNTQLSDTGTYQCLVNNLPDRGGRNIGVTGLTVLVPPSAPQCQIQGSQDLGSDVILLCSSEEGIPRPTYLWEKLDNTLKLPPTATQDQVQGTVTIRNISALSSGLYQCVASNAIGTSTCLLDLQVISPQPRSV

T4: murine IGSF11 expressed on cells (mouse, UniProt P0C673 23-428)
T4 construct: MC38-IGSF11, CT26-IGSF11, MC38-wt (naturally expresses murine IGSF11)
T4 sequence: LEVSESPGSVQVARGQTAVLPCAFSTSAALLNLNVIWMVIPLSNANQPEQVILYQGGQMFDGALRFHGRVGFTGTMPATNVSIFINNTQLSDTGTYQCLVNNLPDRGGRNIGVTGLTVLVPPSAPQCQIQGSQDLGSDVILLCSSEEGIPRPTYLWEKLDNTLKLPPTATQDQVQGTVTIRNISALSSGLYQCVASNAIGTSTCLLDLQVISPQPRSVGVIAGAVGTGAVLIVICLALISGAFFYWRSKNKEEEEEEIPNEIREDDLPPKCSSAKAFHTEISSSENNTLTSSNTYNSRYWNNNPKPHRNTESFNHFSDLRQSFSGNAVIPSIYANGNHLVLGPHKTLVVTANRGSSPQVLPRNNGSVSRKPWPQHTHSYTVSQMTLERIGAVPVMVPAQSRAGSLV


Key:
[1] = target: T1, human IGSF11 (VSIG3) ECD, His-tagged; experiment: IgG1 ELISA EC50 0.02-0.05 nM
[2] = target: T1, human IGSF11 (VSIG3) ECD, His-tagged; experiment: IgG1 ELISA EC50 0.05-1 nM
[3] = target: T2, extracellular domain (ECD) of human …; experiment: ELISA RFU>1.0
[4] = target: T3, ECD of murine IGSF11, recombinant …; experiment: ELISA RFU 0.5-1.0
[5] = target: T3, ECD of murine IGSF11, recombinant …; experiment: ELISA RFU>1.0
[6] = target: T2, extracellular domain (ECD) of human …; experiment: SPR
[7] = target: T4, murine IGSF11 expressed on cells; experiment: IgG FACS CT26-IGSF11
From the text: (§1) Unbound antibodies were removed by washing the cells three time with FACS buffer. Bound antibodies were detected with a mouse anti-human IgG antibody conjugated with AlexaFluor647.

[8] = target: T4, murine IGSF11 expressed on cells; experiment: IgG FACS MC38-IGSF11
From the text: as §1

EC50 [2] | ELISA binding signal (RFU) [3] | Binder | further results
 |  | A-033 (IgG1 format) (antibody, V domains shown, human IgG1 format) VH: QVQLVQSGAEVKKPGASVKVSCKASGYTFTSYGISWVRQAPGQGLEWMGWISAYNGNTNYAQKLQGRVTMTTDTSTSTAYMELRSLRSDDTAVYYCARDHSIVGATTFDYWGQGTLVTVSS VL: not shown | EC50 [1]: 0.02 to 0.05 nM
0.05 to 1 nM |  | A-023 (IgG1 format) (antibody, V domains shown, human IgG1 format) VH: QVQLVQSGAEVKKPGSSVKVSCKASGGTFSSYAISWVRQAPGQGLEWMGGIIPIFGTANYAQKFQGRVTITADESTSTAYMELSSLRSEDTAVYYCARPKYSSGWFYYYGMDVWGQGTTVTVSS VL: QSVLTQPPSVSAAPGQKVTISCSGSSSNIGNNYVSWYQQLPGTAPKLLIYDNNKRPSGIPDRFSGSKSGTSATLGITGLQTGDEADYYCGTWDSSLSVVFGGGTKLTVL | 
 | > 1 rfu | A-016 (scFv format) (scFv, V domains shown, scFv) VH: QVQLQESGAEVKKPGASVKVSCKASGYTFTGYYMHWVRQAPGQGLEWMGGIIPIFGTANYAQKFQGRVTITADESTSTAYMELSSLRSEDTAVYYCAGAGMELTRSGAYYYYGMDVWGQGTTVTVSS VL: QSALTQPASVSGSPGQSITISCTGTSSDIGGYTFVSWYQQHPGKAPKVMIHDVNNRPSGISNRFSGSKSGNTASLTISGLQAEDEADYYCSSVTSTNTYVFGTGTKVTVL | ELISA binding signal (RFU) [4]: 0.5 to 1 rfu
 |  | A-008 (IgG1 format) (antibody, V domains shown, human IgG1 format) VH: QLQLQESGPGLVKPSETLSLTCTVSGGSISSSGYYWGWIRQPPGKGLEWIGSIYYSGSTYYNPSLKSRVTISVDTSKNQFSLKLSSVTAADTAVYYCARHRVRFGEFDAFDIWGQGTMVTVSS VL: QAVLTQPPSVSGAPGERVTLSCTGTSSNVGADFDVHWYQQFPGTAPRLLIFGSDNRPSGVPDRFSGSKSGTSASLAITGLQVEDEADYYCQAYDVRLSGWVFGGGTKLTVL | EC50 [1]: 0.02 to 0.05 nM
 | > 1 rfu | A-008 (scFv format) (scFv, V domains shown, scFv) VH: QLQLQESGPGLVKPSETLSLTCTVSGGSISSSGYYWGWIRQPPGKGLEWIGSIYYSGSTYYNPSLKSRVTISVDTSKNQFSLKLSSVTAADTAVYYCARHRVRFGEFDAFDIWGQGTMVTVSS VL: QAVLTQPPSVSGAPGERVTLSCTGTSSNVGADFDVHWYQQFPGTAPRLLIFGSDNRPSGVPDRFSGSKSGTSASLAITGLQVEDEADYYCQAYDVRLSGWVFGGGTKLTVL | ELISA binding signal (RFU) [5]: > 1 rfu
0.05 to 1 nM |  | A-029 (IgG1 format) (antibody, V domains shown, human IgG1 format) VH: QVQLVQSGAEVKKPGSSVKVSCKASGGTFSSYAISWVRQAPGQGLEWMGGIIPIFGTANYAQKFQGRVTITADESTGTAYMELSSLRSEDTAVYYCARSYYYYYGMDVWGQGTTVTVSS VL: not shown | 
 | > 1 rfu | A-034 (scFv format) (scFv, V domains shown, scFv) VH: QMQLVQSGGGLVKPGGSLRLSCAASGFTFSSYTMNWVRQAPGKGLEWVSSISSIGTYIYYADSVKGRFTISRDNAKNSLYLQMNSLRAEDTAVYYCARVLLSGSYYGYFDSWGQGTLVTVSS VL: QSVLTQPPSVSGAPGQRVTISCTGSSSNIGAGYDVHWYQQLPGTAPKLFIYGNSNRPSGVPDRFSGSKSGTSASLAITGLQAEDEADYYCQSYDSSLSGYVFGTGTKVTVL | ELISA binding signal (RFU) [4]: 0.5 to 1 rfu
0.05 to 1 nM |  | A-034 (IgG1 format) (antibody, V domains shown, human IgG1 format) VH: QMQLVQSGGGLVKPGGSLRLSCAASGFTFSSYTMNWVRQAPGKGLEWVSSISSIGTYIYYADSVKGRFTISRDNAKNSLYLQMNSLRAEDTAVYYCARVLLSGSYYGYFDSWGQGTLVTVSS VL: QSVLTQPPSVSGAPGQRVTISCTGSSSNIGAGYDVHWYQQLPGTAPKLFIYGNSNRPSGVPDRFSGSKSGTSASLAITGLQAEDEADYYCQSYDSSLSGYVFGTGTKVTVL | Kd [6]: 250 to 500 nM
0.05 to 1 nM |  | A-025 (IgG1 format) (antibody, V domains shown, human IgG1 format) VH: QVQLVQSGAEVKKPGSSVKVSCKASGGTFSSYAISWVRQAPGQGLEWMGGIIPIFGTANYAQKFQGRVTITADESTSTAYMELTSLRSEDTAVYYCARGGWLRQNWFDPWGQGTLVTVSS VL: SSELTQDPAVSVALGQTVRITCQGDSLRSYYASWYQQKPGQAPVLVIYGKNNRPSGIPDRFSGSSSGNTASLTITGAQAEDEADYYCNSRDSSGNHPRVFGGGTKLTVL | 
0.05 to 1 nM |  | A-009 (IgG1 format) (antibody, V domains shown, human IgG1 format) VH: QVQLVQSGAEVKKPGSSVKVSCKASGGTFSSYAISWVRQAPGQGLEWMGGIIPIFGTANYAQKFQGRVTITADESTSTAYMELSSLRSEDTAVYYCARGRGFGELYFDYWGQGTLVTVSS VL: ETTLTQSPATLSVSPGERATLSCRASQGVRSNIAWYQQKPGQAPRLLIYDSSTRATGIPARFSGSGSGTEFTLTISSLQSEDFAVYSCQQYKNWPRTFGQGTKVEIK | 
 | > 1 rfu | A-019 (scFv format) (scFv, V domains shown, scFv) VH: QVQLVQSGAEVKKPGASVKVSCKASGYTFTGYYMHWVRQAPGQGLEWMGWINPNSGNTGYAQKFQGRVTMTRNTSISTAYMELSSLRSEDTAVYYCARGGQQQLVLDDYWGQGTLVTVSS VL: not shown | ELISA binding signal (RFU) [4]: 0.5 to 1 rfu
 |  | C-016 (IgG1 format) (antibody, V domains shown) VH: not shown VL: ASVLTQPPSVSAAPGQKVTISCSGSSSNIGNNYVSWYQQLPGTAPKLLIYDNNKRPSGIPDRFSGSKSGTSATLGITGLQAEDEADYYCHLYTEAESHWVFGGGTKLTVL | EC50 [7]: 20 to 50 nM; EC50 [8]: 50 to 100 nM
 | > 1 rfu | A-001 (scFv format) (scFv, V domains shown, scFv) VH: EVQLVESGGGLVKPGGSLRLSCAASGFTFSSYSMNWVRQAPGKGLEWVSSISSSSSYIYYADSVKGRFTISRDNAKNSLYLQMNSLRAEDTAVYYCVRSIIVQALGITSVFDIWGQGTMVTVSS VL: AIRLTQSPSSLSASVGDRVTISCRASQIISNHLNWYQQKPGKAPKLLIYAASRLQTGVPSRFSGSGSETDYTLTISSLQPEDFATYYCQQSYSNPRTFGHGTKVEIK | ELISA binding signal (RFU) [5]: > 1 rfu
 | > 1 rfu | A-026 (scFv format) (scFv, V domains shown, scFv) VH: QVQLQESGPGLVKPSQTLSLTCTVSGGSISSGGYYWSWIRQHPGKGLEWIGYIYYSGSTYYNPSLKSRVTISVDTSKNQFSLKLSSVTAADTAVYYCASWSLGTSNHGWFDPWGQGTLVTVSS VL: QSVLTQPPSASGTPGQRVTISCSGSSSNIGSNTVNWYQQLPGTAPKLLISDNNNRPSGVPDRFSGSKSGTSASLAITGLQAEDEADYYCQSYDSNLSGWVFGGGTKLTVL | ELISA binding signal (RFU) [5]: > 1 rfu
0.05 to 1 nM |  | A-003 (IgG1 format) (antibody, V domains shown, human IgG1 format) VH: VQLVQSGAEVKKPGSSVKVSCKASGGTFSSYAISWVRQAPGQGLEWMGGIIPIFGTANYAQKFQGRVTITADESTSTAYMELSSLRSEDTAVYYCASPRIQLWAAGGFDYWGQGTLVTVSS VL: QSALTQPASVSGSPGQSITISCTGTSSDVGGYNLVSWYQQHPGKAPKLMIYDVSNRPSGVSNRFSGSKSGNTASLTISGLQAEDEADYYCSSFTTSTTLVFGGGTKLTVL | 

Source: US20220372138A1 (IOMX THERAPEUTICS, published 2022)
